From paper PMC5757173

Tests used:
[1] = biological target: FITC (fluorescein isothiocyanate)-labeled RAR (RARΔAB, His-tag); assay: fluorescence polarisation; fluorescence anisotropy; FEZ1 (1 nM to 5000 nM) titrated into 50 nM FITC-labeled RAR; 20 mM Tris pH 8.0, 50 mM NaCl, 2 mM EDTA; 10 °C; absence of all-trans retinoic acid
[2] = biological target: FITC (fluorescein isothiocyanate)-labeled RAR (RARΔAB, His-tag); assay: fluorescence polarisation; fluorescence anisotropy; FEZ1 (1 nM to 5000 nM) titrated into 50 nM FITC-labeled RAR; 20 mM Tris pH 8.0, 50 mM NaCl, 2 mM EDTA; 10 °C; presence of all-trans retinoic acid (AT)

B1: Fasciculation and elongation zeta-1 (1-392) protein fused to an N-terminal 6xHis-tag (natural protein)
chain: MEAPLVSLDEEFEDLRPSCSEDPEEKPQCFYGSSPHHLEDPSLSELENFSSEIISFKSMEDLVNEFDEKLNVCFRNYNAKTENLAPVKNQLQIQEEEETLQDEEVWDALTDNYIPSLSEDWRDPNIEALNGNCSDTEIHEKEEEEFNEKSENDSGINEEPLLTADQVIEEIEEMMQNSPDPEEEEEVLEEEDGGETSSQADSVLLQEMQALTQTFNNNWSYEGLRHMSGSELTELLDQVEGAIRDFSEELVQQLARRDELEFEKEVKNSFITVLIEVQNKQKEQRELMKKRRKEKGLSLQSSRIEKGNQMPLKRFSMEGISNILQSGIRQTFGSSGTDKQYLNTVIPYEKKASPPSVEDLQMLTNILFAMKEDNEKVPTLLTDYILKVLCPT
Kd [1]: 3.4 µM
Kd [2]: 3.8 µM
